# From publication PMC4356373, “The structure of the hexameric atrazine chlorohydrolase AtzA” (Acta Crystallographica Section D: Biological Crystallography, 2015)
# Numbering of substitutions follows the chain as printed.
# B1: Atrazine chlorohydrolase (AtzA), wild type (enzyme, Pseudomonas sp. strain ADP)
# chain: MQTLSIQHGTLVTMDQYRRVLGDSWVHVQDGRIVALGVHAESVPPPADRVIDARGKVVLPGFINAHTHVNQILLRGGPSHGRQFYDWLFNVVYPGQKAMRPEDVAVAVRLYCAEAVRSGITTINENADSAIYPGNIEAAMAVYGEVGVRVVYARMFFDRMDGRIQGYVDALKARSPQVELCSIMEETAVAKDRITALSDQYHGTAGGRISVWPAPATTTAVTVEGMRWAQAFARDRAVMWTLHMAESDHDERIHGMSPAEYMECYGLLDERLQVAHCVYFDRKDVRLLHRHNVKVASQVVSNAYLGSGVAPVPEMVERGMAVGIGTDNGNSNDSVNMIGDMKFMAHIHRAVHRDADVLTPEKILEMATIDGARSLGMDHEIGSIETGKRADLILLDLRHPQTTPHHHLAATIVFQAYGNEVDTVLIDGNVVMENRRLSFLPPERELAFLEEAQSRATAILQRANMVANPAWRSL
# notes: Atrazine chlorohydrolase AtzA of Pseudomonas sp. strain ADP, wild-type atzA gene in the pCS150 expression vector; about 470 amino acids; one Fe2+ per monomer; hexamer is a trimer of dimers; also called wild-type protein; source: E. coli BL21 λDE3, purified (Ni-NTA, SEC, thrombin cleavage of the His tag, SEC)
# B2: AtzA Ala170Thr, Met256Ile, Pro258Thr, Tyr261Ser variant (enzyme, Pseudomonas sp. strain ADP)
# chain: B1 chain with A170T, M256I, P258T, Y261S
# notes: synthetic gene (Life Technologies) subcloned into pCS150; The PDB entries hold the wild-type parent of the same vector, not this variant; also called AtzA variant; the variant; source: E. coli BL21 λDE3, purified (Ni-NTA, SEC, thrombin cleavage of the His tag, SEC)
# Tests used:
# [1] = target: the molecule itself; test: crystal structure; two crystal forms: P22(1)2(1) at 2.8 Å (two hexamers in the asymmetric unit) and P2(1)2(1)2(1) at 2.2 Å (one hexamer); PEG 8000 or PEG 10 000, 50 mM HEPES pH 7.1-7.3, 281 K
# [2] = target: the molecule itself; test: SEC; purified variant, size by SEC; data not shown
Protein,stoichiometry N [1],stoichiometry N [2]
B1,6,
B2,,2
